Experimental data published in patent US7264809B1, “Methods of inhibiting platelet activation and recruitment” (Immunex Corporation, priority 1998, dated 2007).

Tests used:
[1] = TLC assay for ATPase activity; assay type: biochemical
Description: Following growth in selective medium, CM from CHO cell cultures was analyzed for ATPase and ADPase activities. ADPase assays (Marcus et al., J. Clin. Invest. 88:1690, 1991) were primarily used in determining enzyme kinetics and pharmacokinetics. Test samples were incubated with 50 μM [^14C] ADP (NEN Life Science Products) in assay buffer (15 mM Tris, 134 mM NaCl, 5 mM glucose, pH 7.4, containing 10 μM Ap5A (P^1,P^5-di[adenosine-5′]pentaphosphate, 1 mM ouabain, 10 μM dipyridamole, and 3 mM CaCl2) in a total volume of 50 μl (5 min, 37° C.). Reactions were stopped by placement on ice and addition of 10 μl “stop solution” (160 mM disodium EDTA, pH 7.0, 17 mM ADP, 0.15 M NaCl) to block further metabolism of ADP. Nucleotides, nucleosides, and bases were separated by TLC using isobutanol/1-pentanol/ethylene glycol monoethyl ether/NH4OH/H2O (90:60:180:90:120). Radioactivity was quantified by radio TLC scanning (RTLC multiscanner; Packard, Meriden, Conn.). Results were calculated as averages of duplicate to quadruplicate measurements after subtraction of buffer blanks (consistently <1% of total radioactivity). Data were expressed as percentage of ADP metabolized or as pmol ADP metabolized per minute per μl CM. A unit of activity is the quantity of enzyme which will degrade 1 μmol of ADP in 1 min at 37° C. Identical assays were performed using ATP as a substrate in order to examine the kinetics of the ATPase activity of CD39.
Using the TLC assay system described in Example 12B, the ADPase activity of the membrane-bound HUVEC ecto-ADPase was determined at different pHs in buffers containing 100 mM bis-trispropane (Sigma, St. Louis, Mo.). […] Kinetic constants for CD39 metabolism of ATP and ADP were determined by measuring the initial rates of reaction as analyzed in the TLC system.

platelets = assay: Platelet aggregation in human platelet-rich plasma; assay type: cell-based
Description: After obtaining informed consent from volunteers, blood was collected via plastic tubing using acid citrate-dextrose (38 mM citric acid; 75 mM sodium citrate; 135 mM glucose) as anticoagulant. Where indicated, volunteers had ingested 650 mg acetylsalicylic acid (ASA) 18 h prior to blood donation. […] The stock suspension of PRP was maintained at room temperature under 5% CO2-air. […] Total volumes were adjusted to 300 μl with TSG buffer (Marcus et al., J. Clin. Invest. 88:1690, 1991; Marcus et al., J. Clin. Invest. 99:1351, 1997). […] A mock-treated sample was also prepared in which the FSBA solution was replaced with water. After incubating at 37° for 90 min., the samples were centrifuged in a Centricon-10 filter unit (Amicon Corp.) for 1 hour at 5,500 rpm and buffer exchanged into PBS to remove unreacted material.

murine platelets = assay: Ex vivo aggregation of murine platelets; assay type: in vivo, C57BL/6J mice; settings: PRP 1 hour after soluble CD39 4 mg/kg or aspirin 5 mg/kg
Description: C57BL/6J mice (6-8 wk) were obtained from Jackson Laboratories (Bar Harbor, Me.). […] 80 μL of 3.8% trisodium citrate was added to each mL of blood. […] The PRP contained 400-700×10^3 platelets per μL. All experiments were completed within 2 hours of blood collection. PRP (200 μL) was preincubated, for 3 min. at 37° C., with 100 μL Tris-buffered saline buffer ([…], 5 mM glucose, pH 7.4) in an aggregometer cuvette (Lumiaggregometer; Chrono-Log, Havertown, Pa.), and the platelet agonists ADP, collagen, or sodium arachidonate were added at the final concentrations indicated.

[2] = Murine model of stroke (middle cerebral artery occlusion); assay type: in vivo, mice
Description: Anesthetized mice were maintained at 37±2° C. during and for 90 min following surgery. A midline neck incision was made and the right carotid artery exposed. Middle cerebral artery occlusion was accomplished by advancing a 13-mm heat-blunt tipped 6-0 nylon suture via an arteriotomy in the external carotid stump. The external carotid artery was cauterized to secure hemostasis, and arterial flow reestablished. […] Surgical staples were used for wound closure. […]

Bleeding time in mice = assay type: in vivo; settings: aspirin 5 mg/kg; increasing doses of solCD39 (4, 8, 20 mg/kg)
Excerpt: (*p<0.05, ^‡p<0.01, ^†p<0.001).
Hematological profiles, including erythrocyte parameters, platelet counts, leukocyte counts and differentials, and coagulation screening, were normal. […] Under those conditions, the defect was abolished and normal blood fluidity was restored by administration of soluble CD39.

[3] = administered three hours following stroke induction
[4] = prior to, or up to 3 h following, stroke

B1: solCD39: recombinant soluble human CD39, untagged: 12 mature huIL2 residues, three amino acid linker, sol CD39 (SEQ ID NO:7) (protein)
chain: MALWIDRMQLLSCIALSLALVTNSAPTSSSTKKTQLTSSTQNKALPENVKYGIVLDAGSSHTSLYIYKWPAEKENDTGVVHQVEECRVKGPGISKFVQKVNEIGIYLTDCMERAREVIPRSQHQETPVYLGATAGMRLLRMESEELADRVLDVVERSLSNYPFDFQGARIITGQEEGAYGWITINYLLGKFSQKTRWFSIVPYETNNQETFGALDLGGASTQVTFVPQNQTIESPDNALQFRLYGKDYNVYTHSFLCYGKDQALWQKLAKDIQVASNEILRDPCFHPGYKKVVNVSDLYKTPCTKRFEMTLPFQQFEIQGIGNYQQCHQSILELFNTSYCPYSQCAFNGIFLPPLQGDFGAFSAFYFVMKFLNLTSEKVSQEKVTEMMKKFCAQPWEEIKTSYAGVKEKYLSEYCFSGTYILSLLLQGYHFTADSWEHIHFIGKIQGSDAGWTLGYMLNLTNMIPAEQPLSTPLSHST
- Vmax for ATP ([1]; 2×10^−9 M solCD39): 26 pmol/min
- kcat (ATP) ([1]; 2×10^−9 M solCD39): 4.33 s⁻¹
- specific activity for ATP ([1]; purified recombinant solCD39): 4 U/mg
- platelet aggregation induced by 10 μM ADP (platelets; 3.3 μg/ml solCD39, PRP from aspirin-ingesting donor): abruptly terminated
- induction of platelet activation by ADP or collagen (platelets; ASA-treated PRP, 10 μM ADP (4.4 μg/ml) or collagen (22 μg/ml)): significantly inhibited
- effect on collagen-induced aggregation with increasing quantity (platelets; PRP from aspirin-ingesting donor): dose dependent
- platelet responsiveness to 5 μM ADP (platelets; PRP with or without 10 μM indomethacin, CM containing solCD39 from COS-1 and CHO cells): completely abrogating
- platelet aggregation response to collagen (platelets; collagen 1 μg/ml, PRP): markedly reduced
- ex vivo platelet aggregation, collagen (murine platelets; 2.5 μg/ml collagen): attenuated
- ex vivo platelet aggregation, ADP (murine platelets; 10 μM ADP): abrogated
- ex vivo platelet aggregation, arachidonate (murine platelets; 0.1 mM sodium arachidonate): attenuated
- fibrin accumulation in the ipsilateral hemisphere ([2]; 8 mg/kg, Western blot): decreased
- postischemic cerebral perfusion / blood flow ([2]; 24 hours after stroke induction): improved
- infarction volume [2, 3]: reduced
- postischemic blood flow [2, 3]: restored
- intracerebral hemorrhage ([2]; following stroke, spectrophotometric): no significant increase
- cerebral infarct volume ([2]; preoperative administration, aspirin 5 mg/kg): dose-dependent diminution
- platelet accumulation in the ipsilateral cerebral hemisphere ([2]; pretreated with 8 mg/kg i.v.): inhibited
- mortality [2, 4]: reduced
- neurological deficit [2, 4]: reduced
- infarct volume in CD39−/− mice ([2]; reconstituted CD39−/− mice): markedly diminished
- bleeding times (Bleeding time in mice): markedly increased
